B1: ΔB7-H6_S3#14-SEED-PGLALA (bispecific antibody, part only; not given: SEED Fc chains and hu225 Fab, part only)
chain, part: DLKVEMMAGGTQITPLNDNVTIFCNIFYSQPLNITTMGITWFWKSLTFDKEVKVFEFYGDHQEAFRPGAIVSPWRLKSGDASLRLPGIQLEEAGEYRCEVVVTPYKAQGTVQLEVVASPAS
B2: ΔB7-H6_S3#25-SEED-PGLALA (bispecific antibody, part only; not given: SEED Fc chains and hu225 Fab, part only)
chain, part: DLKVEMMAGGTQITPLNDNVTIFCNIFYSQPLNITWMGITWFWKSLTFDKEVKVFEFYGDHQEAFRPGAIVSPWRLKSGDASLRLPGIQLEEAGEYRCEVVVTPYKAQGTVQLEVVASPAS
B3: ΔB7-H6_S3#15-SEED-PGLALA (bispecific antibody, part only; not given: SEED Fc chains and hu225 Fab, part only)
chain, part: DLKVEMMAGGTQITPLNDNVTIFCNIFYSQPLNITIMGITWFWKSLTFDKEVKVFEFWGDHQEAFRPGAIVSPWRLKSGDASLRLPGIQLEEAGEYRCEVVVTPYKAQGTVQLEVVASPAS
B4: ΔB7-H6_S3#32-SEED-PGLALA (bispecific antibody, part only; not given: SEED Fc chains and hu225 EGFR Fab, part only)
chain, part: DLKVEMMAGGTQITPLNDNVTIFCNIFYSQPLNITEMGITWFWKSLTFDKEVKVFEFWGDHQEAFRPGAIVSPWRLKSGDASLRLPGIQLEEAGEYRCEVVVTPVKAQGTVQLEVVASPAS
B5: ΔB7-H6_S2#5-SEED-PGLALA (bispecific antibody, part only; not given: SEED Fc chains and hu225 Fab, part only)
chain, part: DLKVEMMAGGTQITPLNDNVTIFCNIFYSQPLNITSMGITWLWKSLTFDKEVKVFEFWGDHQEAFRPGAIVSPWRLKSGDASLRLPGIQLEEAGEYRCEVFVTPYKAQGTVQLEVVASPAS
B6: ΔB7-H6_S2#13-SEED-PGLALA (bispecific antibody, part only; not given: SEED Fc chains and hu225 Fab, part only)
chain, part: DLKVEMMAGGTQITPLNDNVTIFCNIFYSQPLNITSMGITWFWKSLTFDKEVKVFEFWGDHQEAFRPGAIVSPWRLKSGDASLRLPGIQLEEAGEYRCEVVVTPYKAQGTVQLEVVASPAS
B7: ΔB7-H6_S3#2-SEED-PGLALA (bispecific antibody, part only; not given: SEED Fc chains and hu225 EGFR Fab, part only)
chain, part: DLKVEMMAGGTQITPLNDNVTIFCNIFYSQPLNITWMGITWFWKSLTFDKEVKVFEFWGDHQEAFRPGAIVSPWRLKSGDASLRLPGIQLEEAGEYRCEVVVTPYKAQGTVQLEVVASPAS
B8: ΔB7-H6_S3#31-SEED-PGLALA (bispecific antibody, part only; not given: SEED Fc chains and hu225 EGFR Fab, part only)
chain, part: DLKVEMMAGGTQITPLNDNVTIFCNIFYSQPLNITIMGITWFWKSLTFDKEVKVFEFYGDHQEAFRPGAIVSPWRLKSGDASLRLPGIQLEEAGEYRCEVVVTPLKAQGTVQLEVVASPAS
B9: ΔB7-H6_S2#6-SEED-PGLALA (bispecific antibody, part only; not given: SEED Fc chains and hu225 EGFR Fab, part only)
chain, part: DLKVEMMAGGTQITPLNDNVTIFCNIFYFQPLNITEMGITWFWKSLTFDKEVKVFEFFGDHQEAFRPGAIVSPWRLKSGDASLRLPGIQLEEAGEYRCEVIVTPLKAQGTVQLEVVASPAS
B10: ΔB7-H6_S2#12-SEED-PGLALA (bispecific antibody, part only; not given: SEED Fc chains and hu225 Fab, part only)
chain, part: DLKVEMMAGGTQITPLNDNVTIFCNIFYSQPLNITHMGITWLWKSLTFDKEVKVFEFYGDHQEAFRPGAIVSPWRLKSGDASLRLPGIQLEEAGEYRCEVVVTPLKAQGTVQLEVVASPAS
B11: ΔB7-H6_wt-SEED-PGLALA (bispecific antibody, part only; not given: SEED Fc chains and hu225 Fab, part only)
chain, part: DLKVEMMAGGTQITPLNDNVTIFCNIFYSQPLNITSMGITWFWKSLTFDKEVKVFEFFGDHQEAFRPGAIVSPWRLKSGDASLRLPGIQLEEAGEYRCEVVVTPLKAQGTVQLEVVASPAS
B12: ΔB7-H6_S2#4-SEED-PGLALA (bispecific antibody, part only; not given: SEED Fc chains and hu225 Fab, part only)
chain, part: DLKVEMMAGGTQITPLNDNVTIFCNIFYSQPLNITHMGITWFWKSLTFDKEVKVFEFYADHQEAIRPGAIVSPWRLKSGDASLRLPGIQLEEAGEYRCEVVVTPYKAQGTVQLEVVASPAS
B13: ΔB7-H6_S2#11-SEED-PGLALA (bispecific antibody, part only; not given: SEED Fc chains and hu225 Fab, part only)
chain, part: DLKVEMMAGGTQITPLNDNVTIFCNIFYSQPLNITTMGITWFWKSLTFDKEVKVFEFWQDHQEAFRPGAIVSPWRLKSGDASLRLPGIQLEEAGEYRCEVVVTPLKAQGTVQLEVVASPAS
B14: ΔB7-H6_S2#14-SEED-PGLALA (bispecific antibody, part only; not given: SEED Fc chains and hu225 Fab, part only)
chain, part: DLKVEMMAGGTQITPLNDNVTIFCNIFYSQPLNITTMGITWFWKSLTFDKEVKVFEFFGDHQEAFRPGAIVSPWRLKSGDASLRLPGIQLEEAGEYRCEVVVTPYKAQGTVQLEVVASPAS
B15: ΔB7-H6_S3#4-SEED-PGLALA (bispecific antibody, part only; not given: SEED Fc chains and hu225 Fab, part only)
chain, part: DLKVEMMAGGTQITPLNDNVTIFCNIFYSQPLNITIMGITWFWKSLTFDKEVKVFEFWGDHQEAFRPGAIVSPWRLKSGDASLRLPGIQLEEAGEYRCEVVVTPLKAQGTVQLEVVASPAS
B16: ΔB7-H6_S3#20-SEED-PGLALA (bispecific antibody, part only; not given: SEED Fc chains and hu225 Fab, part only)
chain, part: DLKVEMMAGGTQITPLNDNVTIFCNIFYSQPLNITHMGITWFWKSLTFDKEVKVFEFWGDHQEAFRPGAIVSPWRLKSGDASLRLPGIQLEEAGEYRCEVFVTPLKAQGTVQLEVVASPAS
B17: ΔB7-H6_S2#10-SEED-PGLALA (bispecific antibody, part only; not given: SEED Fc chains and hu225 EGFR Fab, part only)
chain, part: DLKVEMMAGGTQITPLNDNVTIFCNIFYSQPLNITLMGITWFWKSLTFDKEVKVFEFWGDHQEAFRPGAIVSPWGLKSGDASLRLPGIQLEEAGEYRCEVVVTPLKAQGTVQLEVVASPAS

Key:
[1] = biological target: NKp30 on human NK cells (human) (UniProt O14931); experiment: cell-based or functional assay
Sequence of NKp30 on human NK cells (human) (O14931 19-201): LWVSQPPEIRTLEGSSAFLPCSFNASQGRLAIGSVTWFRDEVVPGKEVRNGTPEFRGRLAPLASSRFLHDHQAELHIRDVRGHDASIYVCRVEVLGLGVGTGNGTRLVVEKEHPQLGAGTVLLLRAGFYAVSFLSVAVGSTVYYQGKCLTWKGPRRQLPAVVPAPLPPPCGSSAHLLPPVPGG

human NKp30 (human) [2] = biological target: human NKp30 (human) (UniProt O14931); experiment: BLI, immunoligand on anti-hFc tip
Sequence of human NKp30 (human) (O14931 19-135 limits assumed): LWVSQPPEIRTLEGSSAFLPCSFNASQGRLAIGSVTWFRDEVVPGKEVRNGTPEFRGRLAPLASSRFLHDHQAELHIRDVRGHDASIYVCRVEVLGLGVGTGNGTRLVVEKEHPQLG

human NKp30 (human) [3] = biological target: human NKp30 (human) (UniProt O14931); experiment: BLI, ratio to ΔB7-H6_wt

Binder	A431 EC50 with PBMC (pM) [1] [pM]	A549 EC50 with PBMC (pM) [1] [pM]	EC50 (pM), A431 lysis with PBMC [1] [pM]	EC50 improvement compared to ΔB7-H6 wt [1] [fold]	Kd (human NKp30 (human) [2]) [nM]	koff (human NKp30 (human) [2]) [s⁻¹]	kon (human NKp30 (human) [2]) [M⁻¹ s⁻¹]	KD improvement compared to ΔB7-H6 wt (human NKp30 (human) [3]) [fold]	x-fold KD improvement (human NKp30 (human) [3]) [fold]	x-fold Koff improvement (human NKp30 (human) [3]) [fold]	A431 EC50 with NK cells (pM) [1] [pM]	A549 EC50 with NK cells (pM) [1] [pM]	enhanced potency compared to the wild-type ΔB7-H6 immunoligand, initial screening [1] [fold]	half-maximal killing activity, initial screening [1] [pM]	increase in potency with purified NK cells on A431 compared to wild-type [1] [fold]	EC50 of A431 lysis with PBMC, initial screening [1] [nM]
B1	150	556	21	41	34.5	0.0322	933000	11.9	11.9	5.2						
B2	37.8	135	9.9	88	65.2	0.0486	745000	6.3	6.3	3.5	4.25	34.6	187	6		
B3	29.9	133	8.7	100	12.4	0.0101	817000	33	33	16.6	2.8	31.3			87	
B4					188	0.0766	409000									
B5					253	0.148	585000									
B6			171	5	205	0.0842	410000	2	2	2						
B7					11.7	0.0122	1.04e+06									
B8	34.8	224	17.5	50	43.6	0.0269	616000	9.4	9.4	6.3				25.1		
B9					285	0.376	1.32e+06									
B10					291	0.162	556000									
B11	1840		868	1	409	0.168	412000	1			245					1.1
B12					147	0.122	830000									
B13			172	5	234	0.115	491000	1.7	1.7	1.5						
B14			158	5	217	0.124	570000	1.9	1.9	1.4						
B15					23.9	0.0149	621000									
B16					61.6	0.0642	1.04e+06									
B17			122	7	187	0.111	597000	2.2	2.2	1.5						

Source: patent US20230287082A1 (published 2023)
